Measurements from patent JP2014141434A (dated 2014).

T1: rROBO4−ECD (ヒトROBO4細胞外領域ポリペプチド) (human, UniProt Q8WZ75 28-461)
T1 construct: It was cloned in pEF6/V5-His-TOPO; also called ヒトROBO4−ECD; rROBO4-ECD
T1 sequence: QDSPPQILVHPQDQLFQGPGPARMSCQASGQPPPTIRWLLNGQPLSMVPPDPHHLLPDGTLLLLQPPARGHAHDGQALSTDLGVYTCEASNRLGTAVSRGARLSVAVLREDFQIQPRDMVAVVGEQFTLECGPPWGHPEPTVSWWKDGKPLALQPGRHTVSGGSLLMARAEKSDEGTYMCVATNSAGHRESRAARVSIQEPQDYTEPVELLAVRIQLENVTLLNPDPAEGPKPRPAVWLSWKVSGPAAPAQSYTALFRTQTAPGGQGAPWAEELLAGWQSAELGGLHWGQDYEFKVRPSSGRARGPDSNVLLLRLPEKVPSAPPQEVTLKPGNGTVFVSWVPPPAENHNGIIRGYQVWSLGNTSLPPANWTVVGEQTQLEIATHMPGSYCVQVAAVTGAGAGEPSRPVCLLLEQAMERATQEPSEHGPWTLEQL

B1: ヒト化MAb1抗体 H−1140 (antibody, human IgG2, kappa, V domains shown)
VH: EVQLVESGGGLVQPGGSLRLSCAASGFTFSTYAMSWVRQAPGKGLEWVATISQGGTYTYYPDSVKGRFTISRDNAKNTLYLQMNSLRAEDTAVYYCARLIYYDYLDYWGQGTLVTVSS
VL: DIVMTQSPLSLPVTLGEPASISCRSSQSLENSNGNTYLNWYLQKPGQSPQLLIYRVSNRFSGVPDRFSGSGSGTDFTLKISRVEAEDVGVYYCLQVTHVPWTFGPGTKVDIKR
notes: Humanised IgG2 / kappa; also called H-1140; hMAb1-H2 / hMAb1-L1
B2: ヒト化MAb1抗体 H−1040 (antibody, human IgG2, kappa, V domains shown)
VH: EVQLVESGGGLVQPGGSLRLSCAASGFTFSTYAMSWVRQAPGKGLEWVATISNGGTYTYYPDSVKGRFTISRDNAKNTLYLQMNSLRAEDTAVYYCARLIYYDYLDYWGQGTLVTVSS
VL: DIVMTQSPLSLPVTLGEPASISCRSSQSLENSNGNTYLNWYLQKPGQSPQLLIYRVSNRFSGVPDRFSGSGSGTDFTLKISRVEAEDVGVYYCLQVTHVPWTFGPGTKVDIKR
notes: Humanised IgG2 / kappa; also called H-1040; hMAb1-H1 / hMAb1-L1
B3: ヒト化MAb1抗体 H−2040 (antibody, human IgG2, kappa, V domains shown)
VH: EVQLVESGGGLVQPGGSLRLSCAASGFTFSTYAMSWVRQAPGKRLEWVATISNGGTYTYYPDSVKGRFTISRDNAKNTLYLQMNSLRAEDTAVYYCARLIYYDYLDYWGQGTLVTVSS
VL: DIVMTQSPLSLPVTLGEPASISCRSSQSLENSNGNTYLNWYLQKPGQSPQLLIYRVSNRFSGVPDRFSGSGSGTDFTLKISRVEAEDVGVYYCLQVTHVPWTFGPGTKVDIKR
notes: Humanised IgG2 / kappa; also called H-2040; hMAb1-H3 / hMAb1-L1

What follows are binders tested against T1, rROBO4−ECD (ヒトROBO4細胞外領域ポリペプチド) (assay: SPR, Biacore 3000; antibody captured by anti-human IgG on CM5 chip, rROBO4-ECD (0.1-200 nM) as analyte, 1:1 model).

Binder	Kd [pM]
B1	3900
B2	410
B3	400
